Measured values reported in the nanobody polyreactivity screen of Harvey et al. (2022).

Assay: yeast display, Sf9 membrane polyspecificity reagent, FACS + sequencing; frameworks hold sequencing errors
In short: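 Genes from sorted yeast were amplified by colony PCR, read by MiSeq 2 × 250 sequencing and filtered on CDR length. These cells carried a synthetic nanobody library in Saccharomyces cerevisiae BJ5465 and were sorted by FACS into low and high (top ~1%) gates on anti-HA and streptavidin fluorescence. Polyreactivity is labelled according to the gate of origin.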

Sequence | polyreactivity (PSR sort gate)
QVQIVESGGGLVQAGGSLRLSCAASGSTFPWYVMGWYRQAPGKERELVAAISWSGGRTYYADSVKGRFTISRDNAKNTVYLQMTRLKPEDRAVYYCAAEFKLVSHTYYYWGQGTQVTVSS | low polyreactivity
QVHLVESGGGLVQAGGSLRLSCAASGRTFHYYAMGWYRQAPGKERELVAAISVSGGSTYYADSVKGRFTISRDNAKNTVYLQMNSLKPEDNAVYYCAADDYLVEHDYWGQGTQVTVSS | low polyreactivity
QVQLVESGGGIVQAGGSLRLSCAASGRIFPYNAMGWYIQAPGKERELVAAIRWSGGNTYYADSVKGRFTISRDNAKNTVYLQMNSLKPEDNAVYYCAKYRRSFGFDYWGQGTQVTVSS | high polyreactivity
QVQLVESGGGLVQAGASLRLSCAASGNILVGNDMGWYRQAPWKERELVAAISSGDTTSYADSVKGRFTISRDNAKNTVYLQMNSLKPEDTAVYYCAVDRSLSPFAYDYWGQGTQVTVSS | low polyreactivity
QVQLVDSGGGLVQAGGSLRLTCAASGRTFWKYCKGWYRQAPGQERELVAVMSRPAGSTYYADSVKGRFPISRDNAKNTGYLLLNRLKPEDTAVYSCAKRPKNKPVLGDYDHWGQGTQVTVSS | low polyreactivity
QVQLVESGGGLVQAGGSLRLSCAASGNIISIYAMGWYRQAPGKEREFVASNDWSVASTYYADSVKGRFTISRDNAKNTVYLQMNSLKPEDTAVYYCAAELFGLKYGYYLSYDYWGQGTQVTVSS | high polyreactivity
QVQLVERGGGLVQAGGSLRLSCAASGRIFYVNTMGCYRQAPGKERELVATISSAASTNYADSVKGRFTISRDHAKNTVYLQMNSLKPEETAVYYCNAALYKEYYYWGQGTQVTVSS | low polyreactivity
QVQLVESGGGLVQAGGSLRLSCAASGFTFPWNVMGWYRQAPGKERELVAAITYDGGGTYADSVKGRFTISRDNAKNTVYLQMNSLKPEDTEVYFCNADLIYGEVYDYWGQGTQVTVSS | low polyreactivity
QVQLVESGGGLVQAGGSLRLSCAASGRTFRRYTMGWYTQAPGKVRELVAAITTSGGSTYYADSVKGRFTISRDNAKHTVYLQMNSLKPEDTAVYYCAATRRYSGDFWGQGTQVTVSS | high polyreactivity
QVQLVESVGGLVQAGGSLRLSCADSGFTIYSYAMGWYRQAPGKERELVAAITQSGGSTYYADSVKGRFTISRDNAKNTVYLQMNSLKPEDTAVYYCAAVIYIDYDYGYYYWGQGTQVTVSS | low polyreactivity
QVQLVESGGGLVQAGGSLRLSCAASGFIFKRYAMGWYRQAPGKERELVAAITSSGGRTYYADSVKGRFTISRDNAKNTVYLQMISLKPEDTAVYYCAKGWSTYYTKMNYWGQGTQVTVSS | low polyreactivity
QVQLVESGGGLVQAGGSLRLSCAASGRTFYGNAMGWYRQAPGKERELVAAITSGGGSTRYADSVKGRFTISRDNAKNTVYLQMNSLKPEDTAVYYCNATLGNFGYRRYSGHTRYYYWGQGTQVTVSS | high polyreactivity
QVQLVESGGGLVQAGGSLRLSCAASGRIFLDNTMGGYRQATGKERELVATISSGASTNYADSVKGRFTISRDNAKNTVYLQMNSLKPEDTGVYYCNARVGGYPLWYKKYYYWGQGTQVNVSS | low polyreactivity
QVQLVESGGGLVQAGGSLRLSCAASGRILATYTMGWYRQAPGKERELVATITSGGRTTYADSVKGRFTISRDNAKNTVYLQMNSLKPEDTAVYYCNVANWYYRKYRPLWGRDYYWGQGTQVTVSS | high polyreactivity
QVQLVESGGGLVQAGGSLRLSCAASGFIFDQNAMGWYRQAPGKERELVAAISKRGGSTYYADSVKGRFTISRDTAKNTVYLQMNSLKPEDTAVYYCATRSWGPYYYGYNHWGQGTQVTVSS | high polyreactivity
QVQLVESGGGLVQAGGSLRLSCAASGSTIDVYTMGWYRQAPGKERELVAAISRGSSTYYADSVKGRFTISRDNAKNTVYLQMNSLKPEDTAVYYCNAVTSRKYRRYGYGYWGQGTQVTVSS | high polyreactivity

Sequence | polyreactivity (PSR sort gate)
QVQLVESGGGLVQPGCSLRLSCAASGSTFESYAMGWYRQAPGKERELVAAISWRVGSTYYADSVKGRFTISRDNAKNTVYLQMNSLKPEDNAVYYCASKGWYSHYGGYDYWGQGTQVTVSS | low polyreactivity
QGQLVESGGGLVQAGGSLRLRSAASGRTFNYYAMGWYRQAHGKERELVATSSWSGVSTRYADSVKGRFTISRDNAKNTVYLEMNSLNPEDTAVYYCNAGYSKRSFYSAYGYWGEGTQVTVSS | high polyreactivity
QVQLVESGGGLVQAGGSLRLTCAASGRTFGDNAMGWYRQAPWKERELVAAITSGASTYYADAVKGRFTISRDNAMNTVYLQMNSLKPEDTAVYYCADDQGDWNGYGFDYWGQGTQVTVSS | low polyreactivity
QVQLVESGRGLVQAGGSLRLSCAASGSIFEQNVMGWYRQAPGKERELVAAITRGGSTNYADSVKGRFTISRDNAKNTVYLQMNSLKPEDTAVYYCSKRRWLGPSTLGYWGQGNQVTVSS | low polyreactivity
QVQLVESGGGLVQAGGSLRLSCAASGRTFYNYAMGWYRQAPGKERELVATITGRGGRTFYADSVKGRFTISRDNAKNTVYLQMNSLKPEDTAVYYCDAYRSASPYYTLYVEHDYWGQGTQVTVSS | low polyreactivity
QVQLVESGGGLVQAGGRLRLSCAASGSTIRRYAMRWYRQAPGKERELVAAIRQRGTSTYYADSVKGRFTISRDNAKNTVYLQMNSLKPEDTAVYYCAADSYSSRGNYWGQGTQVTVSS | high polyreactivity
QVQLVESGGGLVQAGGSLRLSCAASGLIFARNAMGWYRQAPGKERELVAAISSSGNTYADSVKGRFTISRDNAKNTVYLQMNSLKPEDTAVYYCNKYGVVLPGFDYWGQGTQVTVSS | high polyreactivity
LVQLVESGGGLVQAGGSLSLSCAAYGRTFAKNAMGWYRQAPGKERDLVAVINRSGGSTYADSVKGRFTISRDNAKNTVYLQMNSLKPEDTAVYYWADYYFRSYSKTYIYPFDYWGQGSQVTVSS | low polyreactivity
QVQLVESGGGLVQAGGSLRLSCAASGFIFVLNAMGWYRQAPGKERELVAAIRWSGGSTYYADSVKGRFTISRDNAKNTVYLQMNSLKPEDTAVYYCAARLWLKVQYLRFFGYDYWGQGTQVTVSS | low polyreactivity
QVQLVESGGGLVQAGGSLRLSCAASGFNIGDYAMGWYRQAPGKERELVAAITISGGGTYYADSVKGRFTISRDNAKNTVYLQMNSLKPEDTAVYYCAAGYYDLNLDTDFGFDYWGQGTQVTVSS | low polyreactivity
QVQLVESGGGLVQAGGSLRLSCAASGSTFGVNAMGWYRQAPGKERELVAAITWSGDTTYYADSVKGRFTISRDNAKNTVYLQMNSLKPEDSAVYYCATYYYYPSWYLLYGDYNYWGQGTQVTVSS | low polyreactivity
QVQLVESGGGLVQAGGSLRLSCAASGIIFKLYAMGWYRQAPGKEREFVATITKTGGRTYYEDSVKGRFTISRDNAKNTVYLQMNSLKPEDTAVYYCAARRVNGKMYYWGQGTQVTVSS | high polyreactivity
PVQLVESGGGLVQAGGSLRLSCAASGRTFPFYGMGWYRQAPGKERELVAAISISGGSTYYADSVKGRFTISRDNAKNTVYVQMNSLKPEDTAVYYCAAVGPRSYGFGNGYWGQGTQVTVSS | high polyreactivity
QVQLEESGGGLVQAGGSLRLSCAASGRIFSGNAKGWYRQAPGKERELVANITSSSNTNYADSVKGRFTISRDNAKNTVYLQMNSLKPEDTAVYYCAKSAHNGYSFYGYDYWGQGTQVTVSS | low polyreactivity
QVQLVESGGGLVQAGGSLRLSCAASGRIFSSYAMGWSRPAPGKERELVAAISSSGGNTYYADSVKGRFTISRDNAKNTVYLQMNSLKPEDTAVYYCNTRWVHRDWYDYWGQGTQVTVSS | high polyreactivity
